A word on the IC50: it is the concentration that inhibits the measured activity by half. One may read the Kd as the concentration at which binding is half-saturated. The low end stands for higher affinity, the high end for lower affinity.

In patent publication EP1117419B1 (The University Of Southern California, dated 2010) one finds IC50 and Kd data, which are given here for one molecule.

Assay [1] deals with human platelet membrane glycoprotein (GP)IIb/IIIa on human platelets (platelet rich plasma) (human, UniProt P08514 32-1039; P05106 27-788).
For assay [2], the target named is canine platelet (GP)IIb/IIIa on canine platelets (platelet rich plasma) (canine, UniProt Q9TUN8 32-1036; A0A8I3PMU9 158-919).
The target of assay [3] is binding sites on unactivated human platelets. Put plainly: Scatchard analysis of CN binding to unactivated human platelets.

B1: contortrostatin (CN), native homodimer purified from Agkistrodon contortrix contortrix venom (ligand)
chain: DAPANPCCDAATCKLTTGSQCADGLCCDQCKFMKEGTVCRRARGDDLDDYCNGISAGCPRNPFHA
Regarding B1, the IC50 in assay [1] is 0.4 µg/mL; in assay [2], 0.24 µg/mL. For the same molecule, the Kd in assay [3] came out at 37 nM.
